According to the DeepSol protein solubility set:

Test: soluble on expression in E. coli; label from the status in PepcDB or PDB records

Sequence	soluble on expression in E. coli
MSQENIIYFSDYICITKGADGFYIESYKKGMSVDEFNKIIGRHPEIKITSFMAIKNAILFAPKPPVKFGEVKDRISVELSSDELKAYIRLCVEEWEFSGDARVKLMEEISKSLEKAGVVFGIKEDVLLDGLCNNKQILIAEGIPPEHGEDAVIRMYEIKKAKPAIKEDGRVDHYELNLINKVKTGDWLGERIDPTPGTAGKSVKGNPIPARPGRNYPLHYDKNSVREERKGGVTYLYALKSGAVHYEGDRISVSNHLEIDGDVDFKTGNINFDGFVTIKGTVADGFSVVAVKDVEILGTIGIGSVKEVVSKEGSIYIKGGIAGKNKAVIKAKKDVYTKYISDATVACEGSLHVGLYCINSNITAREIIIDSPKGQISGGNIQCETKVLSPVLGSPSEKRTVISVKGFNRNTLKERLEEVMKNIETLKNELVKVKAEVNAYFENEQNGKVGSLKAEDIRQRFNRIKNELTELEEEKKAISDTLRTRGEGEISILKKAYPGVVIGIKNIIKEIDRPIVNTTFYIQDGYIKEV	soluble
MGGSHHHHHHGMASALDPAGGPRGVLPRPCRVLVLLNPRGGKGKALQLFRSHVQPLLAEAEISFTLMLTERRNHARELVRSEELGRWDALVVMSGDGLMHEVVNGLMERPDWETAIQKPLCSLPAGSGNALAASLNHYAGYEQVTNEDLLTNCTLLLCRRLLSPMNLLSLHTASGLRLFSVLSLAWGFIADVDLESEKYRRLGEMRFTLGTFLLLAALRTYRGRLAYLPVGRVGSKTPASPVVVQQGPVDAHLVPLEEPVPSHWTVVPDEDFVLVLALLHSHLGSEMFAAPMGRCAAGVMHLFYVRAGVSRAMLLRLFLAMEKGRHMEYECPYLVYVPVVAFRLEPKDGKGVFAVDGELMVSEAVQGQVHPNYFWMVSGCVEPPPSWKPQQMPPPEEPL	not soluble
AIAVFWGKPLASPRESPRAPGENGKRALHFCAVDEDFVRLFYSFFKSLVGKDVVVELKNDLSICGTLHSVDQYLNIKLTDISVTDPEKYPHMLSVKNCFIRGSVVRYVQLPADEVDTQLLQDAARKEALQQKQ	soluble
MNRMSLAALLSCLPLVAWADNPVKLDTPVSGWRAGDGSAANYRQVVNYPASSVNVAADQATTARIRGAIESQPKDRPATLVVNGVSMPLKVDADGSFDRPFAFPSGSNSVEVRNAAGQSRRVQFYHGGGGGEVPAKLRVLLSWDSDNTDLDLHLVTPDGDHVWYGNRSLANGATLDVDVTTGYGPEIIATPTPQKGPYLVYVNYFGGGYGSSEDGAEQAAQDLTTARITLVTEEGTPNEKQETFLVPMRKPGELTLVKRFSYP	not soluble
MGHHHHHHSHMSTKVPIYLKRGSRKGKKEKLRDLLSSDMISPPLGDFRHTIHIGSGGGSDMFGDISFLQGKFHLLPGTMVEGPEEDGTFDLPFQFTRTATVVGRELPDGPSPLLKNAISLPVIGGPQALTLPTAQAPPKPPRLHLETPQPSPQEGGSVDIWRIPETGSPNSGLTPESGAEEPFLSNASSLLSLHVDLGPSILDDVLQIMDQDLDSMQIPT	not soluble
MGSDKIHHHHHHMNIIKFFNQTIDYIETTLEDKIDEKKIVQLSGYSYPMFSRIFSILTAYSLSEYIRLRRLTKAAFDLRKNEEKVIDIAFKYQYESPDSFSLAFKKYHNCTPMEVKQGKDFKIFSPIHLSLTIKGGKAMEISIKKKEKFIVGGIKAENIETFQCPKVWEELFKKVSFNDLEKLGNGNSYGVCYETTSSKSINYIAAFDVKNVSEAKKLGLDTMEIPEAEYAVVKLKGKIPNCIHEGWKYVMEVFFPEHGYKHAGTPDFELYSEGDMGSDNYEMELWVPIIKAE	not soluble
MFEKQEVEQKKELKILEIIKEAIELGASDIHLTAGAPPAVRIDGYIKFLKDFPRLTPEDTQKLAYSVMSEKHRQKLEENGQVDFSFGVRGVGRFRANVFYQRGSVAAALRSLPAEIPEFKKLGLPDKVLELCHRKMGLILVTGPTGSGKSTTIASMIDYINQTKSYHIITIEDPIEYVFKHKKSIVNQREVGEDTKSFADALRAALREDPDVIFVGEMRDLETVETALRAAETGHLVFGTLHTNTAIDTIHRIVDIFPLNQQEQVRIVLSFILQGIISQRLLPKIGGGRVLAYELLIPNTAIRNLIRENKLQQVYSLMQSGQAETGMQTMNQTLYKLYKQGLITLEDAMEASPDPKELERMIRGGRHHHHHH	soluble
AHHHHHHGSGNNTEVIKMVEVRLENLTKKFGDFTAVNSLNLTIKDGEFLVLLGPSGCGKTTTLRMIAGLEEPTSGKIYFGDRDVTYLPPKDRNVSMVFQSYAVWPHMTVYENIAFPLKIKKYPKDEIERRVKWAAELLQIEELLDRYPAQLSGGQRQRVAVARAIVVEPDVLLMDEPLSNLDAKLRVAMRAEIKKLQQKLKVTTIYVTHDQVEAMTMGDRIAVMNRGKLLQVGSPTEVYLNPNSVFVATFIGAPEMNILEVSVGEGYLEGEGFKIELPDDIMEALRNYIGKTVLFGIRPEHMVIEGISELAHMRRTAKIKGVVDFVEALGTDTIVHVRFEESIIKVKLPGHIPLEIGKEVSVLIDLDKIHIFDKNSEKAII	soluble
SALTIFSVKDPQNSLWHSTNAEEIQQQLNAKGVRFERWQADRDLGAAPTAETVIAAYQHAIDKLVAEKGYQSWDVISLRADNPQKEALREKFLNEHTHGEDEVRFFVEGAGLFCLHIGDEVFQVLCEKNDLISVPAHTPHWFDMGSEPNFTAIRIFDNPEGWIAQFTGDDIASAYPRLA	soluble
MAHHHHHHMFLRVPLFVAHLRLLPRQRIYMGAHCGGNIWANGRSVSVHFMVGWCYTMSRDVAEASVSFKPLRRLAHTPYSKERDEEFSSIGMGHEDMMVGHVLLDEVKYQPLIHVKVLPCHFLEARSDTGESQVVPTSMCVHHIREDDYAALMARFGNDTSPVARLWRVSEDVIYPSCD	not soluble
MGSDKIHHHHHHMPAAATLADWKAASVPDFLAERSRQELARLGNPGWWGPPDLEALAELMQLAAAEGWRILPAGRGTRLDWGGLGHPVDAVISTAACDRLIEHAAADLTVTVEAGMTLGQLQTILAETGQWLPFDPIAGESSSLGALVSTGMSGSLRHRYGSLRDFLIGITFLRHDGQWAKGGGRVVKNVAGYDMMKLLHGAWGSLGLIGKLTFRTYPLPNAWGTIACQGDREAILQLRSQLVRSDLTPVAFDLLSPAAAAELELRSQWTVLLRFGSVAASVQEQQQVVELQATRLGLAAMTVAEPVWGQLNQSFEPRSRSATLIKFALLPSQLPCLLAELEAIAPTALGRVHAASGAGWLVWPEAEPTVETLLRLRRHCEVAEGFLSVLAASVSLKQQLDIWGYPGQGLAVMRAIKRQFDPQSRLAPGRFLAGLEE	not soluble
MKIMINPKYEYLREYVERIPKDFETIGTVIHSGRNLIKMITVDGLDINVKRYTIPPLINRIAYAFFRPSKGKRAFVYPEKLLEKGFETPCPIAYIEETKMGLIGHSYFMSIQSPYRYNFCQFGNADIKSCEDVVTAFAEFTARLHEAGILHLDYSPGNILYDKIGEEYHFSLVDINRMHFGEVDIKKGCANFARLWGQTPFFILLGKEYAHSRGMDEEECVRLVLHYRKKFWNRYRRRHQVWFQLDI	not soluble
MSENNKIILYQDDNEIIRVSVRFSDEDLWLTQNQLAEIYCTTQQNISQHVDNIYKDGELFTEATNKKFLLVRQEGNRQVRRNIDHYNLDMVIALGYRVQSQVATRFRRWATQRLHEYIQKGFAMDDERLKQGGNRYFRELLQRIRDIRSSERNFYQQVTDIYATATDYDPRDEMTKMFFATVQNKLHYAVHENTAAEVIYNRVDNEKPFVGMTNFKGNYVTKDDVKIAKNYLSEIELQRLNLLVSGFLDFAEFQALEMNPMTMKDWIEALDNQIIAHKRKVLIDKGRISHKQAIEKAEKEFAIYRKREMDLLESDFDKEIKRLKDKNDNNPN	not soluble
MEFPFDVDALFPERITVLDQHLRPPARRPGTTTPARVDLQQQIMTIIDELGKASAKAQNLSAPITSASRMQSNRHVVYILKDSSARPAGKGAIIGFIKVGYKKLFVLDDREAHNEVEPLCILDFYIHESVQRHGHGRELFQYMLQKERVEPHQLAIDRPSQKLLKFLNKHYNLETTVPQVNNFVIFEGFFAHQHPPARKLPPKRAEGDIKPYSSSDREFLKVAVEPPWPLNRAPRRATPPAHPPPRSSSLGNSPERGPLRPFVPEQELLRSLRLCPPHPTARLLLAADPGGSPAQRRRTR	not soluble
MIQQESRLKVADNSGAREVLVIKVLGGSGRRYANIGDVVVATVKDATPGGVVKKGQVVKAVVVRTKRGVRRPDGSYIRFDENACVIIRDDKSPRGTRIFGPVARELRDKDFMKIISLAPEVI	soluble
WYPSRPLVTTPSQADIQADQSSPRDLLEYFLSGLGETSLPVIQQQVQRYEQENQGLLIDSSLFAQYVQYKAALSELTLPQASGGLSTQEWWQLHQSLLDLQARYFSAEQQALFAEENRLRELAIEKRRIYEQYGQSEEAQRAWQALLLDQPDFIQRSEATAQLLPQLTQAGQGDTQQRYLARVALVGEQGAQRLAELDDSRATFEQQFQDYYQARAAILVRNELSASEQQTQIQQLREQHFAPEQWRRIDALERLKDN	not soluble
MRHREWSRATEGDRTMATTIATLTQKTDGILEGVFATIRVNAPIAIIPNASKSSEEAPDYRVIHRKTGFEIGAGWNRIARQTGEEYLSVKLEAPEIGVIFGNLAPAPGGDPSKKVILWNNPD	not soluble
MISTPLSKEFEWPAKPVSLELQHQVEQFYYREAQLLDHHAFQAWFALLAEDIHYWMPIRTVRTAREQGLEYVPAGANAHFDDTHATMYGRIRQKTSDLNWAEDPPSRTRHLVSNVIVREMDTPGTLEVASAFLLYRSRLERQVDVFAGERRDVLRIADNPLGFQIAKRTIILDQSTVLANNLSVFF	soluble
MLNHIVMWKIKEDVEDKEKVKLGIKNGLEGLFGKIEELREIRVERFMESTSTHDVALFVKVDNEDTLKKYATNPLHVEIIKNYIKPFVYDRVCIDFFELEHHHHHH	not soluble
MRMLAAERRDHLLGLLARQGKIVAKDVAAELRISEDTVRRDLRDLASEGLCQRVYGGALPVSPAVADYGARRTVAPDGKRKVASAAAGLVRPGGVVILDGGTTALAVVHALPEDLDCTVITHSPTIAAALLDHPRAEVFVLGGRLFKHSAVACGAAAVEAAQNVSADLFLLGVTGVHLEAGLTTGDAEDAAMKRALAARAADTYVLASSEKIGTASRYRVLPWEEISGLVTDTPPHDPVIEQLTAGGVDVLAADAAALEHHHHHH	not soluble
MGHHHHHHSHMSTVAFHTLGCKVNHYETEAIWQLFKQGGYERTEYEKKADVYVINTCTVTNTGDKKSRQVIRRAVRQNPDAVICVTGCYAQTSPAEIMAIPGVDIVVGTQDREKMLGYIEEFRKERQPINAVRNIMKTRVYEELDVPYFTDRTRASLKIQEGCNNFCTFCIIPWARGLMRSRDGKEVIKQAQQLVDAGYKEIVLTGIHTGGYGEDIKDYNLAGLLRDMEAEVGGLKRLRISSIEASQISDEVIEVLDKSEVVVRHLHIPLQSGSNTVLKRMRRKYTMEFFQERLDRLKEALPGLAITSDVIVGFPGETEEEFMETYNFIKENRFSELHVFPYSKRTGTPAARMEDQVPEDVKNDRVHRLIELSNQLAKEYASAFEGEVLEIIPEEQFKDGDREGLYVGYTDNYLKIVFEGSEELIGKLVKVKITKAGYPYNEAQFVRVLEDDVKKESASA	soluble
